Test results: patent publication US20260275324A1, “UNNATURAL AMINO ACID IN CELLULO SYNTHESIS FOR SITE-SPECIFIC PROTEIN MODIFICATION” (The Chinese University of Hong Kong, priority 2023, published 2026)

Assays:
[1] = target: GST-CDK4 (Sino Biological) (UniProt P11802); assay: microscale thermophoresis (MST), against linear MBP-P16p as reference
[2] = target: GST-CDK4 (Sino Biological) (UniProt P11802); assay: microscale thermophoresis (MST); Alexa Fluor 647-labelled MBP-cycP16p at 70 nM, GST-CDK4 titrated from 1.92 µM
[3] = target: CDK4 of MCF-7 cells (endogenous) (UniProt P11802); assay: cell-based or functional assay
[4] = target: α-synuclein (Homo sapiens, UniProt P37840); settings: in vitro and in vivo, Liang et al. 2021; cited from earlier work

cycRGD-mCh-cycP16p (bifunctional bicyclic protein), sequence (P42771 83-103): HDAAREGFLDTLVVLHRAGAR
GST-CDK4 (Sino Biological), sequence (P11802 whole entry): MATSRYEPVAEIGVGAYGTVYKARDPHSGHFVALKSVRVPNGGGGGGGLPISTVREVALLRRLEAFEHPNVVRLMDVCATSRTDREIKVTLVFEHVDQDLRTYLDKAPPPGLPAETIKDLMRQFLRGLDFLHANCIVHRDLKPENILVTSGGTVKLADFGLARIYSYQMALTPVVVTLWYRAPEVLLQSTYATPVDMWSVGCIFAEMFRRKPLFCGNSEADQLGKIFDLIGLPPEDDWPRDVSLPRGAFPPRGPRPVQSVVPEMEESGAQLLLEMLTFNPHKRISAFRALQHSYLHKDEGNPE

MBP-cycP16p (cyclized MBP-P16p protein) (from UniProt P0AEX9 27-392; P42771 83-103)
fold higher binding affinity compared to its linear counterpart MBP-P16p [1]: 4 fold
Kd [2]: 27.7 nM

R9-P16p (linear P16p fused to the poly-arginine cell penetrating sequence; Pepmic) (from UniProt P42771 84-103) (peptide)
percent of MCF-7 cells arrested at G0/G1 phase (flow cytometry, 15 µM, 24 h) [3]: 60.7%

SUMOmini2: earlier linear version of SUMO1 peptide (15-55), Liang et al.
inhibition of α-synuclein aggregation [4]: effectively inhibit α-synuclein aggregation in vitro and in vivo

cycRGD-mCh-P16p (cycRGD-mCherry bearing linear uncyclized P16p) (from UniProt P42771 83-103)
percent of MCF-7 cells arrested at G0/G1 phase (flow cytometry, 15 µM, 24 h) [3]: 46.7%

cycRGD-mCh-cycP16p (bifunctional bicyclic protein) (from UniProt P42771 83-103)
percent of MCF-7 cells arrested at G0/G1 at 72 h (time course) [3]: 88%
percent of MCF-7 cells arrested at G0/G1 phase (flow cytometry, 15 µM, 24 h) [3]: 76.7%
